Assay results from patent US20120258109A1 (Eli Lilly, published 2012).

Columns and labels:
Rat TGF-alpha [1] = biological target: T1, Rat TGF-alpha (rat, UniProt P01134 39-88); assay: cell-based or functional assay
Met-human Epiregulin [2] = biological target: T2, Met-human Epiregulin (human, UniProt O14944 63-108); assay: cell-based or functional assay
Mouse Epiregulin [3] = biological target: T3, Mouse Epiregulin (mouse, UniProt Q61521 56-101); assay: cell-based or functional assay
Human Epigen = Human Epigen (human, UniProt Q6UW88 24-104, limits assumed); assay: cell-based or functional assay
Rat TGF-alpha [4] = biological target: T1, Rat TGF-alpha; assay: SPR (Biacore), antibody captured by anti-human Fc, ligand in solution, 25 C
Method: (§1) Biacore T2000 instrument (BIAcore® AB, Upsala, Sweden), reagents and Biacore T2000 Evaluation Software Ver 4.1 are used for the Surface Plasmon Resonance analysis. A CM5 chip is prepared using manufacturer's EDC/NHS amine coupling method. The surfaces of all four flow cells are activated by injecting a 1:1 mixture of EDC/NHS for 7 minutes at 10 μL/min. Goat anti-human Fc γ specific antibody is diluted to 50 μg/ml in 10 mM acetate, pH 4.0 buffer and immobilized for approximately 10000 RU onto all four flow cells by 7 minute injection at a flow rate of 10 μL/min. Un-reacted sites are blocked with a 7 minute injection of ethanolamine at 10 μL/min. Injections of 3×20 seconds of glycine pH 1.5 at 30 μL/min are used to remove non-covalently associated protein. The running buffer is HBS-EP [10 mM HEPES, 150 mM Sodium Chloride, 3 mM EDTA, 0.005% Polysorbate 20].
(§2) Duplicate injections of each ligand concentration are injected at 30 μL/min for 300 seconds followed by a dissociation phase. […] Regeneration is performed by injecting 10 mM glycine pH 1.5 for 3×20 seconds at 30 μL/min over all flowcell.
(§3) Reference-subtracted data are collected as Fc2−Fc1. The measurements are obtained at 25° C. The on-rate (kₒₙ) and off-rate (koff) for each ligand are evaluated using a “1:1 (Langmuir) Binding” binding model. The affinity (KD) is calculated from the binding kinetics according to the relationship: KD=koff/kₒₙ.

Met-human Epiregulin [5] = biological target: T2, Met-human Epiregulin; assay: as above
Method: as §1, §2, §3

Cynomolgus Epiregulin = Cynomolgus Epiregulin (cynomolgus, UniProt O14944 63-108 (human entry), limits assumed); assay: as above
Method: as §1, §2, §3

Mouse Epiregulin [6] = biological target: T3, Mouse Epiregulin; assay: as above
Method: as §1, §2, §3

Human TGF-alpha = Human TGF-alpha (human, UniProt P01135 40-89); assay: cell-based or functional assay
Mouse Epiregulin [7] = biological target: T3, Mouse Epiregulin; assay: SPR (Biacore), antibody captured on the chip, ligand in solution, 25 C
Method: as §1
(§4) Duplicate injections of each ligand concentration are injected at 30 μL/min for 300 seconds followed by a dissociation phase. […] Regeneration is performed by injecting 10 mM glycine pH 1.5 for 30 seconds at 30 μL/min over all flowcell.
as §3

Mouse TGF-alpha = Mouse TGF-alpha (mouse, UniProt P48030 39-88, limits assumed); assay: as above
Method: as §1, §4, §3

B1: Antibody I (antibody, human IgG4 S228P, kappa, F234A L235A, V domains shown)
VH: QVQLVQSGAEVKKPGSSVKVSCKASGYTFTDAYINWVRQAPGQGLEWMGWIWPGPVITYYNPKFKGRVTITADKSTSTAYMELSSLRSEDTAVYYCARREVLSPFAYWGQGTTVTVSS
VL: DIVMTQSPDSLAVSLGERATINCRSSQSIVHSTGNTYLEWYQQKPGQPPKLLIYKVSNRFSGVPDRFSGSGSGTDFTLTISSLQAEDVAVYYCFHGTHVPYTFGGGTKVEIKR
B1 was tested, and the “IC50 (nM), MFc7 proliferation assay (BrDU), ligand at 0.5 nM” value (shortened to “IC50 (nM) … at 0.5 nM”) (Rat TGF-alpha [1]) was 0.19 nM, the “IC50 (nM) … at 0.5 nM” value (Met-human Epiregulin [2]) was 3.15 nM and the “IC50 (nM) … at 0.5 nM” value (Mouse Epiregulin [3]) was 334 nM. For the same binder, the “IC50 (nM), MFc7 proliferation assay (BrDU), ligand at 100 nM” value (Human Epigen) was 807 nM, the Kd (Rat TGF-alpha [4]) was 0.0705 nM and the Kd (Met-human Epiregulin [5]) was 1.29 nM. For the same binder, the Kd (Cynomolgus Epiregulin) was 1.05 nM and the Kd (Mouse Epiregulin [6]) was 342 nM.

B2: Antibody III (antibody, mouse IgG1, kappa, V domains shown)
VH: QVQLQQSGPELVKPGASVKISCKASGYTFTDAYINWVKQRPGQGLEWIGWIWPGPVITYYNPKFKGKATLTVDKSSSTAYMLLSSLTSEDSAFYFCARREVLSPFAYWGQGTLVTVSA
VL: DVLMTQTPLSLPVSLGDQASISCRSSQSIVHSTGNTYLEWYLQKPGQSPKLLIYKVSNRFSGVPDRFSGSGSGTDFTLKISRVEAEDLGVYYCFHGTHVPYTFGGGTKLEIKR
notes: same six CDRs as Antibody I
B2 was tested, and the “IC50 (nM), MFc7 proliferation assay (BrDU)” value (Human TGF-alpha) was 0.52 nM, the “IC50 (nM) … at 0.5 nM” value (Rat TGF-alpha [1]) was 0.13 nM and the “IC50 (nM), MFc7 proliferation assay (BrDU)” value (Met-human Epiregulin [2]) was 1.12 nM. The “IC50 (nM) … at 0.5 nM” value (Mouse Epiregulin [3]) was 214 nM, the Kd (Mouse Epiregulin [7]) was 215 nM and the koff (Mouse Epiregulin [7]) was 0.0141 s⁻¹. For the same binder, the kon (Mouse Epiregulin [7]) was 65500 M⁻¹ s⁻¹, the Kd (Mouse TGF-alpha) was 0.038 nM and the koff (Mouse TGF-alpha) was 2.02e-05 s⁻¹. For the same binder, the kon (Mouse TGF-alpha) was 541000 M⁻¹ s⁻¹.
